Results taken from publication doi:10.1101/2024.07.21.604498.

Target: hERG channel with a deleted PAS domain fused to Citrine (S620T) (human) (UniProt Q12809)
Assay: FRET or BRET

hERG PAS domain fused to CFP (from UniProt Q12809 1-135) (domain or fragment)
Ratio A (F436/F500): 0.37 | Ratio A-Ratio A0 (proportional to FRET efficiency): 0.21
